Measured values published in patent US20240425882.

Target: T1, microtubule-associated protein EB2 (endogenous, mouse brain), Q8R001
T1 chain: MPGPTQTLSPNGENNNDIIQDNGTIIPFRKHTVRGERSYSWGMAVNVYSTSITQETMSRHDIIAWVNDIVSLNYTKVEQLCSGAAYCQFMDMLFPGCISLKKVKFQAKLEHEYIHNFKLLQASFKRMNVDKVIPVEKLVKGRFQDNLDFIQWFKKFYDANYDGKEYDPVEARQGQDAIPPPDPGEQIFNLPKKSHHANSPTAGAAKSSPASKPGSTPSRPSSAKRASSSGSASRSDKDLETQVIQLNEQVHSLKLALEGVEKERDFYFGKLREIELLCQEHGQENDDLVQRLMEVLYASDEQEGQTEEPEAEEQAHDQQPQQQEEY

B1: human cyclin-dependent kinase-like 5 (CDKL5), isoform 1 (protein)
chain: MKIPNIGNVMNKFEILGVVGEGAYGVVLKCRHKETHEIVAIKKFKDSEENEEVKETTLRELKMLRTLKQENIVELKEAFRRRGKLYLVFEYVEKNMLELLEEMPNGVPPEKVKSYIYQLIKAIHWCHKNDIVHRDIKPENLLISHNDVLKLCDFGFARNLSEGNNANYTEYVATRWYRSPELLLGAPYGKSVDMWSVGCILGELSDGQPLFPGESEIDQLFTIQKVLGPLPSEQMKLFYSNPRFHGLRFPAVNHPQSLERRYLGILNSVLLDLMKNLLKLDPADRYLTEQCLNHPTFQTQRLLDRSPSRSAKRKPYHVESSTLSNRNQAGKSTALQSHHRSNSKDIQNLSVGLPRADEGLPANESFLNGNLAGASLSPLHTKTYQASSQPGSTSKDLTNNNIPHLLSPKEAKSKTEFDFNIDPKPSEGPGTKYLKSNSRSQQNRHSFMESSQSKAGTLQPNEKQSRHSYIDTIPQSSRSPSYRTKAKSHGALSDSKSVSNLSEARAQIAEPSTSRYFPSSCLDLNSPTSPTPTRHSDTRTLLSPSGRNNRNEGTLDSRRTTTRHSKTMEELKLPEHMDSSHSHSLSAPHESFSYGLGYTSPFSSQQRPHRHSMYVTRDKVRAKGLDGSLSIGQGMAARANSLQLLSPQPGEQLPPEMTVARSSVKETSREGTSSFHTRQKSEGGVYHDPHSDDGTAPKENRHLYNDPVPRRVGSFYRVPSPRPDNSFHENNVSTRVSSLPSESSSGTNHSKRQPAFDPWKSPENISHSEQLKEKEKQGFFRSMKKKKKKSQTVPNSDSPDLLTLQKSIHSASTPSSRPKEWRPEKISDLQTQSQPLKSLRKLLHLSSASNHPASSDPRFQPLTAQQTKNSFSEIRIHPLSQASGGSSNIRQEPAPKGRPALQLPGQMDPGWHVSSVTRSATEGPSYSEQLGAKSGPNGHPYNRTNRSRMPNLNDLKETAL
  EB2 phosphorylation (Cdkl5(D471fs) mouse brain): showed robust hCDKL5 protein expression and EB2 phosphorylation 3 months later
  EB2 phosphorylation (Cdkl5(R59X) mouse brain): showed robust hCDKL5 protein expression and EB2 phosphorylation 3 months later
  ability to phosphorylate EB2 (pS222 EB2 Western blot, mouse brain): CDKL5 was fully active, as determined by its ability to phosphorylate its endogenous target EB2 protein
  kinase activity, blotting for phosphorylated EB2 (Cdkl5-ko mouse brain, 3 months after AAV): human CDKL5 showed robust kinase activity when blotting for phosphorylated EB2 protein
  substrate phosphorylation by CDKL5 (phospho-EB2 levels, pS222/total EB2, Western blot, brain): the observed reduction in substrate phosphorylation by CDKL5 (as determined by phospho-EB2 levels) ... was restored to wild type levels

B2: human CDKL5, isoform 4 (protein)
chain: MKIPNIGNVMNKFEILGVVGEGAYGVVLKCRHKETHEIVAIKKFKDSEENEEVKETTLRELKMLRTLKQENIVELKEAFRRRGKLYLVFEYVEKNMLELLEEMPNGVPPEKVKSYIYQLIKAIHWCHKNDIVHRDIKPENLLISHNDVLKLCDFGFARNLSEGNNANYTEYVATRWYRSPELLLGAPYGKSVDMWSVGCILGELSDGQPLFPGESEIDQLFTIQKVLGPLPSEQMKLFYSNPRFHGLRFPAVNHPQSLERRYLGILNSVLLDLMKNLLKLDPADRYLTEQCLNHPTFQTQRLLDRSPSRNQAGKSTALQSHHRSNSKDIQNLSVGLPRADEGLPANESFLNGNLAGASLSPLHTKTYQASSQPGSTSKDLTNNNIPHLLSPKEAKSKTEFDFNIDPKPSEGPGTKYLKSNSRSQQNRHSFMESSQSKAGTLQPNEKQSRHSYIDTIPQSSRSPSYRTKAKSHGALSDSKSVSNLSEARAQIAEPSTSRYFPSSCLDLNSPTSPTPTRHSDTRTLLSPSGRNNRNEGTLDSRRTTTRHSKTMEELKLPEHMDSSHSHSLSAPHESFSYGLGYTSPFSSQQRPHRHSMYVTRDKVRAKGLDGSLSIGQGMAARANSLQLLSPQPGEQLPPEMTVARSSVKETSREGTSSFHTRQKSEGGVYHDPHSDDGTAPKENRHLYNDPVPRRVGSFYRVPSPRPDNSFHENNVSTRVSSLPSESSSGTNHSKRQPAFDPWKSPENISHSEQLKEKEKQGFFRSMKKKKKKSQTTDSTNGENPSIKKSLFPLFNSKNHLKHSSSLKKLPVVTPPMVPNSDSPDLLTLQKSIHSASTPSSRPKEWRPEKISDLQTQSQPLKSLRKLLHLSSASNHPASSDPRFQPLTAQQTKNSFSEIRIHPLSQASGGSSNIRQEPAPKGRPALQLPGQMDPGWHVSSVTRSATEGPSYSEQLGAKSGPNGHPYNRTNRSRMPNLNDLKETAL
  EB2 phosphorylation levels (Western blot, Cdkl5-ko mouse brain): by isoforms three or 4 slightly lower compared to isoform 1

B3: human CDKL5, isoform 2 (protein)
chain: MKIPNIGNVMNKFEILGVVGEGAYGVVLKCRHKETHEIVAIKKFKDSEENEEVKETTLRELKMLRTLKQENIVELKEAFRRRGKLYLVFEYVEKNMLELLEEMPNGVPPEKVKSYIYQLIKAIHWCHKNDIVHRDIKPENLLISHNDVLKLCDFGFARNLSEGNNANYTEYVATRWYRSPELLLGAPYGKSVDMWSVGCILGELSDGQPLFPGESEIDQLFTIQKVLGPLPSEQMKLFYSNPRFHGLRFPAVNHPQSLERRYLGILNSVLLDLMKNLLKLDPADRYLTEQCLNHPTFQTQRLLDRSPSRSAKRKPYHVESSTLSNRNQAGKSTALQSHHRSNSKDIQNLSVGLPRADEGLPANESFLNGNLAGASLSPLHTKTYQASSQPGSTSKDLTNNNIPHLLSPKEAKSKTEFDFNIDPKPSEGPGTKYLKSNSRSQQNRHSFMESSQSKAGTLQPNEKQSRHSYIDTIPQSSRSPSYRTKAKSHGALSDSKSVSNLSEARAQIAEPSTSRYFPSSCLDLNSPTSPTPTRHSDTRTLLSPSGRNNRNEGTLDSRRTTTRHSKTMEELKLPEHMDSSHSHSLSAPHESFSYGLGYTSPFSSQQRPHRHSMYVTRDKVRAKGLDGSLSIGQGMAARANSLQLLSPQPGEQLPPEMTVARSSVKETSREGTSSFHTRQKSEGGVYHDPHSDDGTAPKENRHLYNDPVPRRVGSFYRVPSPRPDNSFHENNVSTRVSSLPSESSSGTNHSKRQPAFDPWKSPENISHSEQLKEKEKQGFFRSMKKKKKKSQTTDSTNGENPSIKKSLFPLFNSKNHLKHSSSLKKLPVVTPPMVPNSDSPDLLTLQKSIHSASTPSSRPKEWRPEKISDLQTQSQPLKSLRKLLHLSSASNHPASSDPRFQPLTAQQTKNSFSEIRIHPLSQASGGSSNIRQEPAPKGRPALQLPGQMDPGWHVSSVTRSATEGPSYSEQLGAKSGPNGHPYNRTNRSRMPNLNDLKETAL
  EB2 phosphorylation levels (Western blot, Cdkl5-ko mouse brain): EB2 phosphorylation levels generated by isoform 2 were slightly higher ... compared to isoform 1

B4: human CDKL5, isoform 3 (protein)
chain: MKIPNIGNVMNKFEILGVVGEGAYGVVLKCRHKETHEIVAIKKFKDSEENEEVKETTLRELKMLRTLKQENIVELKEAFRRRGKLYLVFEYVEKNMLELLEEMPNGVPPEKVKSYIYQLIKAIHWCHKNDIVHRDIKPENLLISHNDVLKLCDFGFARNLSEGNNANYTEYVATRWYRSPELLLGAPYGKSVDMWSVGCILGELSDGQPLFPGESEIDQLFTIQKVLGPLPSEQMKLFYSNPRFHGLRFPAVNHPQSLERRYLGILNSVLLDLMKNLLKLDPADRYLTEQCLNHPTFQTQRLLDRSPSRNQAGKSTALQSHHRSNSKDIQNLSVGLPRADEGLPANESFLNGNLAGASLSPLHTKTYQASSQPGSTSKDLTNNNIPHLLSPKEAKSKTEFDFNIDPKPSEGPGTKYLKSNSRSQQNRHSFMESSQSKAGTLQPNEKQSRHSYIDTIPQSSRSPSYRTKAKSHGALSDSKSVSNLSEARAQIAEPSTSRYFPSSCLDLNSPTSPTPTRHSDTRTLLSPSGRNNRNEGTLDSRRTTTRHSKTMEELKLPEHMDSSHSHSLSAPHESFSYGLGYTSPFSSQQRPHRHSMYVTRDKVRAKGLDGSLSIGQGMAARANSLQLLSPQPGEQLPPEMTVARSSVKETSREGTSSFHTRQKSEGGVYHDPHSDDGTAPKENRHLYNDPVPRRVGSFYRVPSPRPDNSFHENNVSTRVSSLPSESSSGTNHSKRQPAFDPWKSPENISHSEQLKEKEKQGFFRSMKKKKKKSQTVPNSDSPDLLTLQKSIHSASTPSSRPKEWRPEKISDLQTQSQPLKSLRKLLHLSSASNHPASSDPRFQPLTAQQTKNSFSEIRIHPLSQASGGSSNIRQEPAPKGRPALQLPGQMDPGWHVSSVTRSATEGPSYSEQLGAKSGPNGHPYNRTNRSRMPNLNDLKETAL
  EB2 phosphorylation levels (Western blot, Cdkl5-ko mouse brain): by isoforms three or 4 slightly lower compared to isoform 1
